Where no end group is shown, it is not given here.

T1: human RXFP3 (human, UniProt Q9NSD7 1-469)
T1 construct: whole, on cells; also called GPCR135; RXFP3 receptor
T1 sequence (looked up): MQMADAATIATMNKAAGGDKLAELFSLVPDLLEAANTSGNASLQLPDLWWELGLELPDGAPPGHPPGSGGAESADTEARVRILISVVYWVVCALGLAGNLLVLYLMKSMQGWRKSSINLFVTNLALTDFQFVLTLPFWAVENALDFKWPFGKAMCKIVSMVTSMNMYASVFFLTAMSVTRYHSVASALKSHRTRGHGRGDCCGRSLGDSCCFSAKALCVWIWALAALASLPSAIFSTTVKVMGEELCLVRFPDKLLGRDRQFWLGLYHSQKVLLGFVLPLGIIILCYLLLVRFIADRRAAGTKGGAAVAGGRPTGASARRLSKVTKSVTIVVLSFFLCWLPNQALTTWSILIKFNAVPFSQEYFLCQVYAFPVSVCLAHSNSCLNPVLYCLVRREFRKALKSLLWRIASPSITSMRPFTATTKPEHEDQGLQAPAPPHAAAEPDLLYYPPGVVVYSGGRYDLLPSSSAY

T2: human RXFP1 (human, UniProt Q9HBX9 1-757)
T2 construct: whole, on cells; also called LGR7; RXFP1 receptor
T2 sequence (looked up): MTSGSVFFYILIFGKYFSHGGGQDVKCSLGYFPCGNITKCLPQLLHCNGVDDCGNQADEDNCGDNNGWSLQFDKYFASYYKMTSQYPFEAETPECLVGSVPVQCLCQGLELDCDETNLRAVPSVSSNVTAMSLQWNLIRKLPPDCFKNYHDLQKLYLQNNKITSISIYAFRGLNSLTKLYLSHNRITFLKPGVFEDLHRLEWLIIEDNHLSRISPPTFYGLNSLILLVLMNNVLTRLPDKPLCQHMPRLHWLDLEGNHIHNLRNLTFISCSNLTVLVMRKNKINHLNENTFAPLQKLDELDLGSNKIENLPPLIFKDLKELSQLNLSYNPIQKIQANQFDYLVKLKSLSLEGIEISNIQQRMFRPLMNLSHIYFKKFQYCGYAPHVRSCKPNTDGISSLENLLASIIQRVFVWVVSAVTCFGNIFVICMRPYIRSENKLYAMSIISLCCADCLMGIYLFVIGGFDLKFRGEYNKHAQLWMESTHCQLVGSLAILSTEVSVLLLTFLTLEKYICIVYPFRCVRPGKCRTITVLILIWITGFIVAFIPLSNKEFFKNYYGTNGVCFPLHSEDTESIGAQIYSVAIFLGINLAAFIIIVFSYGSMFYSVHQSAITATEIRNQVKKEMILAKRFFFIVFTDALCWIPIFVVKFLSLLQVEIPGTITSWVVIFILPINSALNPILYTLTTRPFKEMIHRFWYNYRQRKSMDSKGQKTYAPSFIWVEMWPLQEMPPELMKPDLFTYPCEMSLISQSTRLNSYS

B1: H3 B3-22R (peptide)
peptide: APYGVRLSGREFIRAVIFTSR-NH2
notes: Synthetic single chain peptide
B2: H3 B1-22R Acid (peptide)
peptide: RAAPYGVRLSGREFIRAVIFTSR-OH
notes: as for B1
B3: H3 B2-22R (peptide)
peptide: AAPYGVRLSGREFIRAVIFTSR-NH2
notes: as for B1
B4: H3 B4-22R (peptide)
peptide: PYGVRLSGREFIRAVIFTSR-NH2
notes: as for B1
B5: H3 B5-22R (peptide)
peptide: YGVRLSGREFIRAVIFTSR-NH2
notes: as for B1
B6: H3 B-chain C10/22S (peptide)
peptide: RAAPYGVRLSGREFIRAVIFTSGGSRW-OH
notes: Synthetic single chain peptide; also called H3 relaxin B chain; native H3 B chain
B7: H3 B1-22R (peptide)
peptide: RAAPYGVRLSGREFIRAVIFTSR-NH2
notes: Synthetic single chain peptide; also called R3 B1-22R; R3 1-22R
B8: H3 B1-22R C10/22A (peptide)
peptide: RAAPYGVRLAGREFIRAVIFTAR-NH2
notes: as for B1
B9: H3 B6-22R (peptide)
peptide: GVRLSGREFIRAVIFTSR-NH2
notes: as for B1
B10: H3 B1-22 (peptide)
peptide: RAAPYGVRLSGREFIRAVIFTS-NH2
notes: as for B1
B11: H3 B7-22R (peptide)
peptide: VRLSGREFIRAVIFTSR-NH2
notes: as for B1

The target in the first assay is T1, human RXFP3. Nature of the assay: competition binding vs Eu-DTPA-R3/I5 on HEK-293T cells stably expressing human RXFP3, time-resolved fluorescence, n = 3.
Experimental: (§1) Binding assays were carried out as follows. […] The cells were incubated at room temperature for 60 min before the peptide solution was aspirated off and the cells washed with PBS.
What is called pIC50 is the IC50 on a negative log10 scale, so that one unit is a factor of ten. A high value points to a small IC50. On to B1, for which the pIC50 was 6.71.

As for B2, the pIC50 was 6.46.

Molecule B3 came in with a pIC50 of 7.06.

B4 gave a pIC50 of 6.66.

Molecule B5 returned a pIC50 of 6.37.

B6: the pIC50 came out at 5.6.

The molecule B7 displayed a pIC50 of 7.75.

Turning to B8, the pIC50 was 6.83.

In the case of B9, the pIC50 was 6.33.

In the next assay the target is T2, human RXFP1. Nature of the assay: competition binding vs Eu-DTPA-H2 relaxin on HEK-293T cells transfected with RXFP1 (FIG. 7).
Experimental: as §1
Turning to B7, the binding result is given as “binds”.

The target of the next assay is T1, human RXFP3. Nature of the assay: competition binding vs Eu-DTPA-R3/I5 on HEK-293T cells expressing human RXFP3 (Table 2 cell: 'No activity').
Experimental: as §1
As for B10, the binding result is “no binding”.

As to B11, the binding result is listed as “no binding”.

Source of the values: patent US20140038895A1 (UNIVERSITY OF QUEENSLAND, published 2014).
